From article PMC11076338, “ACRE, a class of AP2/ERF transcription factors, activates the expression of sweet potato ß-amylase and sporamin genes through the sugar-responsible element CMSRE-1”

T1: ACRE1 (Arabidopsis thaliana, UniProt Q9C591 1-216)
T1 sequence: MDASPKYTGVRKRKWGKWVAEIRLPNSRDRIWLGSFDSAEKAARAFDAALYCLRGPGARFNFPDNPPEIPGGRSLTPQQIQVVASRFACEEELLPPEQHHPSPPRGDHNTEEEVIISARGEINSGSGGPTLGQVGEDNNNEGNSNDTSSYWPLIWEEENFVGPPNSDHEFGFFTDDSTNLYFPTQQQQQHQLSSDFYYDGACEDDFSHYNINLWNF

T2: ACRE2 (ERF017) (Arabidopsis thaliana, UniProt Q84QC2 1-185)
T2 sequence: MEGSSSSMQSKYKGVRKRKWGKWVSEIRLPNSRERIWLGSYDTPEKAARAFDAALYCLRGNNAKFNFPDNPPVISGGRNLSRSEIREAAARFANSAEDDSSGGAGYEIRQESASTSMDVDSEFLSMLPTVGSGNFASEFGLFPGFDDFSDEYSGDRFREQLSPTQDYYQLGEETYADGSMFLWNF

T3: ORA47/ACRE3 (ERF018) (Arabidopsis thaliana, UniProt Q9S7L5 1-195)
T3 sequence: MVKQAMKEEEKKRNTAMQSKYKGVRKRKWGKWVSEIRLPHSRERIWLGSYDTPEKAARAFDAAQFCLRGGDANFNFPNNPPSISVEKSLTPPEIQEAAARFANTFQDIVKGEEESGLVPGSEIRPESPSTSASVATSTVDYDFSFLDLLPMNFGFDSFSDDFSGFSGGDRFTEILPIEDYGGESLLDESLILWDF

B1: DRE (dsDNA)
DNA 1: TCGAGTAAATCATGTCGGTTGAAAG
DNA 2: CTTTCAACCGACATGATTTACTCGA
B2: BA (dsDNA)
DNA 1: CTAGTCTTAATGGACGGTATTGT
DNA 2: ACAATACCGTCCATTAAGACTAG
B3: SPO (dsDNA)
DNA 1: CTAGTACACTTGGACGGCCACAT
DNA 2: ATGTGGCCGTCCAAGTGTACTAG

These binders were tested against T1, ACRE1 (assay: EMSA; EMSA: 15 mM HEPES-KOH pH 7.5, 25 mM KCl, 0.25 mM EDTA, 6% glycerol, 2 mM DTT, 20 fmol probe (Methods print 20 fg), 0.2-0.8 ug protein, room temperature 30 min). Conditions: protein: recombinant; tags: MBP (N-terminal); label: biotin as probe.

Binding result, binds:
B1
B2
B3

The binders below were run against T2, ACRE2 (ERF017) in the same assay as above. Conditions: protein: recombinant; tags: MBP (N-terminal); label: biotin as probe.

Binding result, binds:
B1
B2
B3

The binders below were run against T3, ORA47/ACRE3 (ERF018) in the same assay as above. Conditions: protein: recombinant; tags: MBP (N-terminal); label: biotin as probe.

Binding result, binds:
B1
B2
B3
